Test results published in PMC3461054.

What was measured:
[1] = molecular target: His-KLP64DS (6xHis-tagged KLP64D stalk) (Drosophila) (UniProt Q9VRK9); test: SEC; affinity purified heterodimer on HiLoad 16/60 Superdex 75 pg in 20 mM Tris-Cl pH 7.5, 5 mM MgCl2, 500 mM NaCl, 2.5 mM DTT, 1 ml/min; fractions on SDS-PAGE, band intensities compared
[2] = molecular target: His-KLP68DS (6xHis-tagged KLP68D stalk) (Drosophila); test: as above

Row | stoichiometry N [1] | stoichiometry N [2] | Molecule
1 | 1 | – | KLP68DS (KLP68D stalk, untagged) (domain or fragment)
2 | – | 1 | KLP64DS (KLP64D stalk, untagged) (domain or fragment) PKKKREKTDAEKEELAKRKNEHQKEIEHAKTEQETLRNKLVSLEGKILVGGENLLEKAQTQELLLEQSIAELEQHEKSEEALKQTLQQKATERIDIEERYSTLQDASTGITKKIHRVMQMLMGVKSELADQQQEHQREKEGIYENIRSLSRELALCELVLNSYVP
